Experimental data published in patent US6858210B1, “Therapeutic and diagnostic domain 1 β2GPI polypeptides and methods of using same” (La Jolla Pharmaceutical Co., priority 1998, dated 2005).
Numbering of substitutions follows the chain as printed. Names may count otherwise.

B1: B11: phage clone, domain 1 mutant M42K (protein)
chain: GRTCPKPDDLPFSTVVPLKTFYEPGEEITYSCKPGYVSRGGKRKFICPLTGLWPINTLKCTPRV
B2: 2C3: phage clone, domain 1 mutant P54S (protein)
chain: B1 chain with K42M, P54S
B3: 2D4: phage clone, domain 1 mutant M42T (protein)
chain: B1 chain with K42T
B4: 2D12: phage clone, domain 1 mutant F45L (protein)
chain: B1 chain with K42M, F45L
B5: A10: phage clone, domain 1 mutant D8G (protein)
chain: B1 chain with D8G, K42M
B6: 2D9: phage clone displaying β2GPI domain 1 mutant T3P (protein)
chain: GRPCPKPDDLPFSTVVPLKTFYEPGEEITYSCKPGYVSRGGMRKFICPLTGLWPINTLKCTPRVAEPVESCLAKPHTENSFTNVWKDDKTLDRYANYEGCLWNATGVVVCTGDETQCYGTWVPIGLAIPENEGGGSEGGGSEGGGSEGGGTKPPEYGDTPIPGYTYINPLDGTYPPGTEQNPANPNPSLEESQPLNTFMFQNNRFRNRQGALTVYTGTVTQGTDPVKTYYQYTPVSSKAMYDAYWNGKFRDCAFHSGFNEDPFVCEYQGQSSDLPQPPVNAGGGSGGGSGGGSEGGGSEGGGSEGGGSEGGGSGGGSGSGDFDYEKMANANKGAMTENADENALQSDAKGKLDSVATDYGAAIDGFIGDVSGLANGNGATGDFAGSNSQMAQVGDGDNSPLMNNFRQYLPSLPQSVECRPYVFGAGKPYEFSIDCDKINLFRGVFAFLLYVATFMYVFSTFANILRNKES
B7: 4B12: phage clone, domain 1 mutant T50P (protein)
chain: B1 chain with K42M, T50P
B8: 4G1: phage clone, domain 1 mutant S31P (protein)
chain: B1 chain with S31P, K42M
B9: 3F6: phage clone, domain 1 mutant K44E (protein)
chain: B1 chain with K42M, K44E
B10: SH1: phage clone, domain 1 mutant K33E (protein)
chain: B1 chain with K33E, K42M
B11: SC3: phage clone, domain 1 mutant F45S (protein)
chain: B1 chain with K42M, F45S
B12: 3B4: phage clone, domain 1 mutant S38T (protein)
chain: B1 chain with S38T, K42M
B13: SE3: phage clone, domain 1 mutant T20I (protein)
chain: B1 chain with T20I, K42M

test system: human β2GPI-dependent antiphospholipid antibody; assay: Micropanning of mutant domain 1 phage, patient antibodies; type: binding; details: Table 7A, antibody 6501

| Molecule | μpan score |
| --- | --- |
| B1 | 3 |
| B2 | 1 |
| B3 | 2 |
| B4 | 3 |
| B5 | 2 |
| B6 | 3 |

same assay, conditions: Table 7A, antibody 6626

| Molecule | μpan score |
| --- | --- |
| B1 | 3 |
| B2 | 1 |
| B3 | 1 |
| B4 | 2 |
| B5 | 2 |
| B6 | 2 |

same assay, conditions: Table 7A, antibody 6701

| Molecule | μpan score |
| --- | --- |
| B1 | 3 |
| B2 | 1 |
| B3 | 3 |
| B4 | 2 |
| B5 | 2 |
| B6 | 3 |

same assay, conditions: Table 7B, antibody 6226

| Molecule | Micropan score |
| --- | --- |
| B1 | 4 |
| B7 | 1 |
| B8 | 2 |
| B9 | 0 (0 symbolizing <10 colonies) |
| B2 | 2 |
| B10 | 4 |
| B11 | 3 |
| B3 | 3 |
| B12 | 2 |
| B4 | 4 |
| B13 | 3 |
| B6 | 4 |

same assay, conditions: Table 7B, antibody 6501

| Molecule | Micropan score |
| --- | --- |
| B1 | 4 |
| B7 | 1 |
| B8 | 2 |
| B9 | 0 (0 symbolizing <10 colonies) |
| B2 | 2 |
| B10 | 4 |
| B11 | 1 |
| B3 | 4 |
| B12 | 3 |
| B4 | 4 |
| B13 | 3 |
| B6 | 4 |

same assay, conditions: Table 7B, antibody 6632

| Molecule | Micropan score |
| --- | --- |
| B1 | 4 |
| B7 | 1 |
| B8 | 2 |
| B9 | 0 (0 symbolizing <10 colonies) |
| B2 | 3 |
| B10 | 4 |
| B11 | 4 |
| B3 | 4 |
| B12 | 2 |
| B4 | 4 |
| B13 | 3 |
| B6 | 3 |

same assay, conditions: Table 7B, antibody 6644

| Molecule | Micropan score |
| --- | --- |
| B1 | 4 |
| B7 | 1 |
| B8 | 2 |
| B9 | 1 |
| B2 | 3 |
| B10 | 4 |
| B11 | 4 |
| B3 | 4 |
| B12 | 3 |
| B4 | 4 |
| B13 | 3 |
| B6 | 4 |

same assay, conditions: Table 7B, antibody 6701

| Molecule | Micropan score |
| --- | --- |
| B1 | 4 |
| B7 | 1 |
| B8 | 2 |
| B9 | 0 (0 symbolizing <10 colonies) |
| B2 | 2 |
| B10 | 4 |
| B11 | 0 (0 symbolizing <10 colonies) |
| B3 | 4 |
| B12 | 2 |
| B4 | 2 |
| B13 | 3 |
| B6 | 4 |

same assay, conditions: Table 7B, antibody 7008

| Molecule | Micropan score |
| --- | --- |
| B1 | 4 |
| B7 | 1 |
| B8 | 2 |
| B9 | 2 |
| B2 | 3 |
| B10 | 4 |
| B11 | 4 |
| B3 | 4 |
| B12 | 2 |
| B4 | 4 |
| B13 | 4 |
| B6 | 4 |

test system: rabbit anti-human β2GPI; assay: Micropanning of mutant domain 1 phage, rabbit antibody; type: binding; parameters: key: 0 (<10 colonies) to 4+ (confluent) semiquantitative colony score; details: Table 7A, first (or only) value
Description: Error prone PCR was carried out as follows. Domain 1 of human β2GPI was amplified by PCR under conditions that enhance the error rate of Taq polymerase. The primers were such that amino acids 1-64 were amplified. A Sfc 1 restriction site was incorporated as part of amino acid 1. At the 3′ end a Sal 1 restriction site was incorporated after amino acid 64. The PCR reaction was done as described by Leung et al. (1989) Technique 1:11, using 0.25 mM MnCl2. The PCR product was digested with Sfc 1 and Sal 1 and cloned into fd-tet-DOG2 that had been digested with Apal 1 and Sal 1. This positions domain 1 at the N-terminus of pill immediately after the pill signal sequence. The ligation reaction was electroporated in E. coli K91. Phage were harvested and titered by standard methods. Resulting phage clones were assayed using a micropanning technique.
Immulon type 2 plates were coated with protein G. Protein G was prepared at 5 μg/mL in 0.1 M NaHCO3 and 100 μL per well was added to the wells of microtitration plates and incubated overnight at 4° C. After discarding excess protein G solution from plates, each well was blocked with 200 μL 2YT for 1 hour at RT with agitation on an oscillating platform. Tris-buffered saline, pH 7.4/0.5% Tween 20 (TBS/Tween), was used with an automatic plate washer to wash the wells 4 times with 200 μL. One hundred μL human β2GPI-dependent antiphospholipid 6626, 6501, 6701, rabbit β2GPI-dependent antiphospholipid, or control normal IgG, diluted to 2.5 μg/mL with 2YT, was added to washed wells. The plate was incubated for 1 hour at room temperature on a rotating platform.
Phage to be tested by micropanning were obtained from the agar plates generated by biopanning. Each clone to be tested was transferred using sterile toothpicks to a separate well of a round-bottom 96-well microtitration plate (Corning, Corning, N.Y.) containing 200 μL 2YT/Tet per well and cultured overnight at 30° C. Following overnight incubation, phage cultures were centrifuged using a microtitration plate holder at 1300×g for 10 minutes at room temperature. Supernatants constituted the source of “neat” phage. The neat phage were diluted 1: 100-1:1000 and 100 μL was added to the plate containing protein G-bound β2GPI-dependent antiphospholipid antibody-6501 and normal IgG prepared as described above. The incubation of dilute phage with aPL antibody or control IgG was carried out for 2 hours at room temperature on a flat rotator. After 9 washes with TBS/Tween in an automated plate washer, the IgG-bound phage was eluted with 20 μL of 0.2 N HCl-glycine/0.1% BSA, pH 2.2. The elution incubation continued for 10 minutes at RT, during which time a new Corning microtitration plate was prepared containing 20 μL of freshly starved E. coli per well and kept chilled. One hundred forty μL of 29 mM Tris was added to the plate containing the phage eluates in order to neutralize the pH, following which 20 μL of phage suspension was transferred from each well to the corresponding well in the plate containing starved E. coli. After a 10 minute incubation at 37° C., 200 μL 2YT was added and incubation carried out an additional 30 minutes at 37° C. Using multichannel pipettors, 8 μL from each well was spotted on a large 2YT/Tet agar plate while retaining the original 8×12 well pattern and orientation from the last microtitration plate. After allowing the spots to dry for 30 minutes, the plate was incubated overnight at 30° C. The following day, colonies were semiquantitatively scored from 0 to 4+, with 0 symbolizing <10 colonies; 1+=10-30; 2+=30 colonies to 70% confluent; 3+=70%-90% confluent; 4+=confluent.
For Table 7A, the rabbit anti-human β2GPI was performed on two separate occasions. Mutations are listed with the original amino acid, the position number, and the identity of the amino acid at that position in the mutant. […] Non-mutated domain 1 have a score of 3+, while domain 5 phage gave a score of −. Silent mutations are not shown. […]

| Molecule | μpan score |
| --- | --- |
| B1 | 3 |
| B2 | 3 |
| B3 | 3 |
| B4 | 3 |
| B5 | 2, 2 |
| B6 | 2 |

same assay, conditions: Table 7A, second value (second occasion)

| Molecule | μpan score |
| --- | --- |
| B1 | 4 |
| B5 | 2, 2 |

same assay, conditions: Table 7B, 1st column

| Molecule | Micropan score |
| --- | --- |
| B1 | 4 |
| B2 | 2 |
| B10 | 4 |
| B11 | 4 |
| B3 | 4 |
| B4 | 4 |
| B13 | 4 |
| B6 | 4 |

same assay, conditions: Table 7B, 2nd column

| Molecule | Micropan score |
| --- | --- |
| B1 | 4 |
| B2 | 4 |
| B10 | 4 |
| B11 | 4 |
| B3 | 4 |
| B4 | 4 |
| B13 | 4 |
| B6 | 4 |

same assay, conditions: Table 7B, 3rd column

| Molecule | Micropan score |
| --- | --- |
| B1 | 4 |
| B2 | 4 |
| B10 | 4 |
| B11 | 4 |
| B3 | 4 |
| B4 | 4 |
| B13 | 4 |
| B6 | 4 |

same assay, conditions: Table 7B, 4th column

| Molecule | Micropan score |
| --- | --- |
| B1 | 4 |
| B2 | 4 |
| B10 | 4 |
| B11 | 4 |
| B3 | 4 |
| B4 | 4 |
| B13 | 4 |
| B6 | 4 |

same assay, conditions: Table 7B, 5th column

| Molecule | Micropan score |
| --- | --- |
| B7 | 4 |
| B8 | 4 |
| B9 | 4 |
| B12 | 4 |
